Reference: article PMC6146835

Tested on: HBG-4kb ZF (synthetic 6-zinc-finger DNA-binding domain) (synthetic construct)
Assay: EMSA
Conditions: 10 mM Tris pH 7.5, 50 mM KCl, 5 mM MgCl2, 100 uM ZnCl2, 1 mM DTT, 0.05% Triton X-100, 2.5% glycerol, 100 ng herring sperm DNA per 20 ul, 15 nM Cy5-dsDNA …

“GAGAACTTAGTGGGGGAAAGCAAGCAGAGAGTATAT (double strand) [HBG-4kb on-target]” was tested, and the Kd was 29.5 nM.

For “GAGAACTTAGTGGGGGAAAAAAAGCAGAGAGTATAT (double strand) [HBG-4kb off-target (2-nt mutant)]”, the Kd was 90 nM.
